The target of experiment [1] is T1, DC-SIGN Carbohydrate Recognition Domain (CRD) (Homo sapiens, UniProt Q9NNX6).
T1 construct: The DC-SIGN CRD was captured via the His tag; AviTag (C)
T1 sequence (Q9NNX6 with tags, fused parts or gaps): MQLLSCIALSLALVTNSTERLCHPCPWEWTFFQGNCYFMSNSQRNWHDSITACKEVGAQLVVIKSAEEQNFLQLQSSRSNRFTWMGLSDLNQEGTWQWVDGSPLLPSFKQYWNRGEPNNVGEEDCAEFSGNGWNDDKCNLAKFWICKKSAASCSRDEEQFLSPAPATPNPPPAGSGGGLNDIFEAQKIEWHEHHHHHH
Nature of the experiment: Biacore affinity to DC-SIGN Carbohydrate Recognition Domain. The experiment is classed as binding. The note with it: 25° C. The method, then: The affinity of various antibodies to DC-SIGN Carbohydrate Recognition Domain (CRD) was determined using Biacore. Purified IgGs for the parental antibodies were titrated to determine Kd values for binding to purified antigen domain by two methods described below.
In method 1 DC-SIGN was used as the ligand (surface attached) and the antibody the analyte (injected at different concentrations). The DC-SIGN CRD was captured via the His tag on a CM5 chip that was prepared by immobilizing 12000RU NeutrAvidin followed by capturing ˜550RU of Tris-NTA biotin. Fresh DC-SIGN was used for each dose. Each cycle consisted of charging the surface with a 120s pulse of 5 mM NiCl2, capturing the same amount of DC-SIGN, injecting the antibody at the desired concentration, and stripping the Ni^2+ with pulses of 350 mM EDTA and 500 mM imidazole to remove all DC-SIGN. Antibodies were injected at concentrations between 250 and 31 nM for 180s and allowed to dissociate for 600s. The reverse orientation was used in method 2-antibody the ligand and DC-SIGN the analyte. A CM5 chip was first prepared with mouse anti-human IgG Fc and used to capture the antibodies. […] Kinetic parameters were calculated using the 8K analysis software.
(SPR reads the build-up and loss of mass on a sensor chip optically.)

The subject of experiment [2] is cynomolgus monkey DC-SIGN. Nature of the experiment: FACS binding to CHO cells stably expressing cynomolgus monkey DC-SIGN. The note with it: FACS MFI, average. The method, then: (§1) The affinity of various antibodies and ADCs to DC-SIGN and its species orthologues was determined using FACS. Purified IgGs were titrated to determine EC50 values for binding to cell surface expressed DC-SIGN.
(§2) For this purpose, human DC-SIGN expressing or cynomolgus monkey DC-SIGN expressing stable CHO cell lines or K562 expressing DC-SIGN or K562 expressing L-SIGN cell lines were checked for density and viability using VICELL (Beckman Coulter), and washed once with 4° C. PBS. Cells were stained with DAPI (0.5 ug/mL) diluted in PBS for 30 min on ice. Cells were diluted into 4° C. FACS buffer (PBS, 10 mM EDTA, 2% FBS). 125 μl of cells were seeded (10,000 cells/well) into 96-well v-bottom plates (Nunc cat#442587) and centrifuged for 4 min at 1500 rpm at 4° C. Supernatant was removed. Cells were incubated with a serial dilution of each anti-DC-SIGN antibody in FACS buffer at concentrations ranging across several logs with a top concentration no higher than 50 μg/mL for 60 minutes at 4° C. Following incubation, cells were spun down (1500 rpm, 4 min, 4° C.) and washed two times with FACS buffer. A fluorophore-conjugated anti-hFc gamma-AF-647 (Southern Biotechnology) detection antibody was added at 1:400 and samples were incubated for 1 h on ice in the dark. Following incubation, FACS buffer was added, and the cells were spun down (1500 rpm, 4 min, 4° C.) and washed two times with FACS buffer. After the final wash, cells were resuspended in Fixative Buffer (Biolegend, 420801) and 90 μl of FACS buffer followed by readout on the flow cytometry machine (BD LSRFortessa Cell Analyzer; Cat #647177). Geometric Mean fluorescence intensity (MFI) of live, single cells was calculated in Flowjo 10.4.2 and exported into Graphpad Prism7 for EC50 determination.
In a similar experiment the antibodies were tested for cross-reactivity using engineered isogenic matched cell line.
A general note: In flow cytometry, cells or beads pass a laser one at a time.

For experiment [3], the target named is T2, human DC-SIGN (Homo sapiens, UniProt Q9NNX6).
T2 construct: expressed in transfected cells
T2 sequence (Q9NNX6 1-404): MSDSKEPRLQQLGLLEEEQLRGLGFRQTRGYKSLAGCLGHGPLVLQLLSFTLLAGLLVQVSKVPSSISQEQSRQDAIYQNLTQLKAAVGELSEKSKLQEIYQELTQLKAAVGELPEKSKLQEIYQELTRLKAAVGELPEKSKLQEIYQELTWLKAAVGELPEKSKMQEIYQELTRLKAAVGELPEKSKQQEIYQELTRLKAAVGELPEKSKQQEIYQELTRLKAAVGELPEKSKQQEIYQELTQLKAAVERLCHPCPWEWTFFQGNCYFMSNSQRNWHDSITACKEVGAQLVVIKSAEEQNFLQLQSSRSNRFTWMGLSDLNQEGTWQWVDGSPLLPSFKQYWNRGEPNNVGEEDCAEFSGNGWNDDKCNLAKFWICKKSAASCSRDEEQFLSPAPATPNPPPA
As to the kind of experiment: FACS binding to CHO cells stably expressing human DC-SIGN. The note with it: FACS MFI, average. The method, then: as §1, §2

In experiment [4] the target is T2, human DC-SIGN. Nature of the experiment: FACS binding to K562 cells expressing human DC-SIGN. The note with it: FACS MFI. The method, then:
as §1, §2

Read-outs that look alike come from different tables or passages of the source.

The values that follow come from US20210170043A1, “DC-SIGN ANTIBODY CONJUGATES COMPRISING STING AGONISTS” (NOVARTIS AG, priority 2018, published 2021).

cynomolgus monkey DC-SIGN, sequence (as listed by the source): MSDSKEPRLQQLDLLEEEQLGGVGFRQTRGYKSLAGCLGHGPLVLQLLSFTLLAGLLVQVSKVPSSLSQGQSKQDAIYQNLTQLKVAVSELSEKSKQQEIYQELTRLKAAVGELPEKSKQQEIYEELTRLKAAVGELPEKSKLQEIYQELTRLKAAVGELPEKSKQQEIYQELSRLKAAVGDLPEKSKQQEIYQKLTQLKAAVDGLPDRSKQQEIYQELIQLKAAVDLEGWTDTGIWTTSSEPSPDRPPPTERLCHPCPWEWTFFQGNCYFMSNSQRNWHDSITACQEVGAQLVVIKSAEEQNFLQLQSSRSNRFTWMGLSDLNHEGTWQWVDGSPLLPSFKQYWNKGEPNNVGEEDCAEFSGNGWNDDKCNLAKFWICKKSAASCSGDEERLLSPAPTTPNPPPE

B1: 892D15: anti-DC-SIGN antibody; All antibodies except 892D15 and 942K11 bind human and cynomolgus monkey DC-SIGN similarly; headings print 952D15 (antibody)
heavy: QVTLRESGPALVKPTQTLTLTCTFSGFSPSTSGMSVSWIRQPPGKALEWLALIDWDDDKYFSTSLKTRLTISKDTSKNQVVLTMTNMDPVDTATYYCARAHSGSYFDYWGQGTLVTVSSASTKGPSVFPLAPSSKSTSGGTAALGCLVKDYFPCPVTVSWNSGALTSGVHTFPAVLQSSGLYSLSSVVTVPSSSLGTQTYICNVNHKPSNTKVDKRVEPKSCDKTHTCPPCPAPELLGGPSVFLFPPKPKDTLMISRTPEVTCVVVAVSHEDPEVKFNWYVDGVEVHNAKTKPREEQYNSTYRVVSVLTVLHQDWLNGKEYKCKVSNKALAAPIEKTISKAKGQPREPQVYTLPPSREEMTKNQVSLTCLVKGFYPCDIAVEWESNGQPENNYKTTPPVLDSDGSFFLYSKLTVDKSRWQQGNVFSCSVMHEALHNHYTQKSLSLSPGK
light: DIQMTQSPSTLSASVGDRVTITCRASQSISNWLAWYQQKPGKAPKLLIYKASSLESGVPSRFSGSGSGTEFTLTISSLQPDDFATYYCQQFNSYWTFGQGTKVEIKRTVAAPSVFIFPPSDEQLKSGTASVVCLLNNFYPREAKVQWKVDNALQSGNSQESVTEQDSKDSTYSLSSTLTLSKADYEKHKVYACEVTHQGLSSPVTKSFNRGEC
Regarding B1, the Kd was determined as 0.111 µM in experiment [1] (method 1: DC-SIGN CRD captured on chip, antibody as analyte, read-out: high density DC-SIGN CRD on chip) and 47.6 µM in experiment [1] (method 2: antibody captured on chip, DC-SIGN CRD as analyte, read-out: Ab on chip). Besides, the “cyno DC-SIGN CHO EC50 (ug/mL) ave.” value in experiment [2] was found to be 15.69 µg/mL. For the same molecule, in the experiment with human DC-SIGN [3], the “human DC-SIGN CHO EC50 (ug/mL) ave.” value came to 0.15 µg/mL. The “human DC-SIGN K562 EC50” value with human DC-SIGN [4] is >10 µg/mL.
